Assay results taken from patent publication US20070111947A1, “Fibrin targeted therapeutics” (priority 2005, published 2007).

Test system: arterial thrombosis (FeCl3 damaged carotid artery)
Test: Arterial thrombosis model (FeCl3 damaged carotid artery)
Type: in vivo, rabbit
Experimental: Rabbits are initially sedated with a subcutaneous injection of Xylazine (5 mg/kg). Approximately 5 min following sedation, the animals are anesthetized with a dose of Ketamine (50 mg/kg) and Acepromazine (2.5 mg/kg) intramuscularly to achieve the appropriate level of anesthesia. Anesthetic depth will be assessed using the pain withdraw reflexes and EKG. Anesthesia is given intravenously every 45-60 min at 5-10 mg/kg to maintain proper anesthetic depth.
Left carotid artery is isolated using a ventral midline approach. A stenosis is initiated on the carotid artery reducing blood flow by 70-80%. 1 cm segments of carotid artery are placed in a plastic tube opened lengthwise, together with a filter paper (diameter 3 mm) soaked in ferric chloride (FeCl3, 40 μL, 40% w/w). After 15-30 min exposure of the artery to FeCl3, the plastic tube with the filter paper is removed and the artery is rinsed with saline. The time to vessel occlusion is monitored using a Doppler flow probe, which is attached to the carotid artery. ^125I fibrinogen (30 μCi/kg) is administered 5 min before initiation of the stenosis. The saline, test or control compounds are given via the jugular vein as an intravenous bolus injection immediately before or at the end of FeCl3 exposure. Blood sample are collected at 1, 3, 5, 12, 20, 30, 45, 60 and 90 min after compound injection via the contra lateral jugular vein. The time that blood flow dropped to zero is recorded as the occlusion time of blood vessel. At the end of experiment, animals are sacrificed with an overdose of pentobarbital (120 mg/kg). Both the clot from the FeCl3 damaged artery, and the damaged artery after clot removal are weighed. Right carotid artery is used as a control. Concentration of test compound and fibrin in the clot are detected by γ-countering.
Pharmacokinetics of compound are analyzed by using the WinNonLin program.

[1] = compared to an equivalent dose of Non-binder control, FIG. 4

## CCC(C)[C@H](CC(=O)[C@@H](C)Cc1c[nH]cn1)C(=O)N[C@@H](CC(C)C)C(=O)NCc1ccc(CCC(=O)[C@H](CCNC(=O)CC[C@H]2C(=O)[O][Y]345[O]C(=O)CN(CCN2CCN(CC(=O)[O]3)CC(=O)[O]4)CC(=O)[O]5)NC(=O)CC[C@H]2C(=O)[O][Y]345[O]C(=O)CN(CCN2CCN(CC(=O)[O]3)CC(=O)[O]4)CC(=O)[O]5)cc1 (stereo partly shown) [Hybrid Molecule 3]
[1]
  higher level bound to clot: 5 fold
  higher level bound to clot plus damaged artery: 2 fold
Compared to an equivalent dose of melagatran alone or the Non-binder, FIG. 2
  increased time to occlusion: approximately 4 fold
Compared to an equivalent dose of melagatran or Non-binder control, FIG. 3
  decrease in clot weight: approximately 2 fold
